Experiment [1] addresses His-tagged truncated SARS-CoV-2 E protein (residues 8-65) (SARS-CoV-2) (UniProt P0DTC4). The experiment in a line: AUC.
Experiment [2] deals with Full-length SARS-CoV-2 envelope (E) protein (SARS-CoV-2) (UniProt P0DTC4). Briefly: AUC.

Several values for one entry are separate records, joined by “and”; a condition that tells them apart may be missing. Identical values can stand only once.

Broadly, the stoichiometry N is the number of molecules, sites or subunits per partner or assembly. As to “His-tagged truncated SARS-CoV-2 E protein (residues 8-65) (from UniProt P0DTC4 8-65) (domain or fragment)”, in experiment [1], the Log10 Ka (monomers to pentamer) came out at 16, the percent of the sample as trimers turned out to be 60% and the stoichiometry N was found to be 3.
With “Full-length SARS-CoV-2 envelope (E) protein (from UniProt P0DTC4 1-75) (natural protein)”, in experiment [2], the Log10 Ka (monomers to pentamer) was determined as 17.4; the percent of the sample as pentamers amounted to 80%; the stoichiometry N was 3 and 5.

Values taken from publication PMC9658050.
